Consider eight molecules from doi:10.1101/785121 (bioRxiv, 2020).

Series [1] addresses Isotopically depleted, truncated, strepII-tagged R. rubrum encapsulated ferritin (wild type) (Rhodospirillum rubrum). Nature of the series: native MS.
For series [2] the target is unchanged. Nature of the series: native MS. This is another data set of the same source.
Series [3] shares this target. The series is described as follows: native MS. The source holds these as a separate data set.
Series [4] shares this target. Nature of the series: native MS. This is another data set of the same source.
The target is the same in series [5]. The series is described as follows: native MS. The source holds these as a separate data set.
Series [6] has the same target. The series is described as follows: native MS. This is another data set of the same source.
The series “crystal structure” deals with the molecule itself. Nature of the series: crystal structure.
Series [7] deals with the molecule itself. The series is described as follows: native MS.
For series [8], the target named is T1, Rhodospirillum rubrum encapsulin (Rhodospirillum rubrum, UniProt Q2RVS0 1-280).
T1 sequence: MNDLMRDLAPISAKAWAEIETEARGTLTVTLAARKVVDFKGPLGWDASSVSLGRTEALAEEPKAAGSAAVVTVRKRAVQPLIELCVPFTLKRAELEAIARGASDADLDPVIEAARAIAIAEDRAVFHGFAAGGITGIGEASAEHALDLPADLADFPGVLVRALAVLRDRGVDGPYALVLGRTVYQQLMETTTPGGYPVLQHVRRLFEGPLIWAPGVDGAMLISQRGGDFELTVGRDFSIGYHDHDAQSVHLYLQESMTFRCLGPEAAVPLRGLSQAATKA
Nature of the series: SEC.

The series “SEC” deals with the molecule itself. The series is described as follows: SEC. For orientation: SEC sorts molecules by how far they enter the pores of the column.
Series [9] concerns the molecule itself. The series is described as follows: native MS. The source holds these as a separate data set.

Residue numbers refer to the chain shown, from its start. Names and notes keep the numbering of the source. Values joined by “and” are separate entries in the source; they are usually repeats but may differ in a detail not shown here. Equal entries are not always repeated. Where two headings read alike, the source gives them in different places.

In general, stoichiometry N refers to a count of units in the complex or per binding partner. “Isotopically depleted, truncated, strepII-tagged R. rubrum encapsulated ferritin (wild type) (domain or fragment)”: the stoichiometry N stood at 4 in series [1]; 10 in series [2]; 2 in [3]; 2 in series [4]; 10 in [5]; 10 in [6].

B1: Truncated, C-terminally hexahistidine-tagged R. rubrum encapsulated ferritin E31A variant (domain or fragment)
chain: MAQSSNSTHEPLEVLKEETVNRHRAIVSVMAELEAVDWYDQRVDASTDPELTAILAHNRDEEKEHAAMTLEWLRRNDAKWAEHLRTYLFTEGPITA
For B1, in the series “crystal structure”, the “stoichiometry N” value came out at 10.

B2: Truncated, C-terminally hexahistidine-tagged R. rubrum encapsulated ferritin E34A variant (domain or fragment)
chain: B1 chain with A31E, E34A
On to B2, for which the “stoichiometry N” value in the series “crystal structure” stood at 10.

B3: Rhodospirillum rubrum encapsulated ferritin, wild type (natural protein)
chain: MAQSSNSTHEPLEVLKEETVNRHRAIVSVMEELEAVDWYDQRVDASTDPELTAILAHNRDEEKEHAAMTLEWLRRNDAKWAEHLRTYLFTEGPITAIEAADTAGEGSGGDAAKGATAQGDGSLGIGSLKGEAALARPPRL
Consider B3, for which the “stoichiometry N” value is 2 in the series “native MS [7]”; 10 and 4 in “SEC”. The binding result in series [8] is given as “binds”.

B4: Rhodospirillum rubrum encapsulated ferritin E34A variant (natural protein)
chain: B3 chain with E34A
For B4, the binding result in series [8] is recorded as “binds”. The “stoichiometry N” value is 10 in “native MS [9]”; 4 and 2 in “SEC”.

B5: Rhodospirillum rubrum encapsulated ferritin W38G variant (natural protein)
chain: B3 chain with W38G
With B5, in series [8], the binding result is listed as “binds”.

B6: Rhodospirillum rubrum encapsulated ferritin E31A variant (natural protein)
chain: B3 chain with E31A
Take B6: the binding result in [8] was “binds”. Also, the “stoichiometry N” value is 10 in “native MS [9]”; 4 and 2 in “SEC”.

B7: Rhodospirillum rubrum encapsulated ferritin W38A variant (natural protein)
chain: B3 chain with W38A
For B7, the binding result in [8] is listed as “binds”.
